This is an account of results in US20180238885A1 (INSERM INSITUT NATIONAL DE LA SANTE ET DE LA RECHERCHE …, published 2018).

The target in the experiment is DNMT3A (DNA methyltransferase 3A) (Homo sapiens (Human), UniProt Q9Y6K1 1-912). Kind of experiment: epitope mapping on a membrane of 12-mer DNMT3A peptides, 2 µg GST-ISGF3γ, fluorescence detection.
Sequence of DNMT3A (DNA methyltransferase 3A) (Q9Y6K1 whole entry): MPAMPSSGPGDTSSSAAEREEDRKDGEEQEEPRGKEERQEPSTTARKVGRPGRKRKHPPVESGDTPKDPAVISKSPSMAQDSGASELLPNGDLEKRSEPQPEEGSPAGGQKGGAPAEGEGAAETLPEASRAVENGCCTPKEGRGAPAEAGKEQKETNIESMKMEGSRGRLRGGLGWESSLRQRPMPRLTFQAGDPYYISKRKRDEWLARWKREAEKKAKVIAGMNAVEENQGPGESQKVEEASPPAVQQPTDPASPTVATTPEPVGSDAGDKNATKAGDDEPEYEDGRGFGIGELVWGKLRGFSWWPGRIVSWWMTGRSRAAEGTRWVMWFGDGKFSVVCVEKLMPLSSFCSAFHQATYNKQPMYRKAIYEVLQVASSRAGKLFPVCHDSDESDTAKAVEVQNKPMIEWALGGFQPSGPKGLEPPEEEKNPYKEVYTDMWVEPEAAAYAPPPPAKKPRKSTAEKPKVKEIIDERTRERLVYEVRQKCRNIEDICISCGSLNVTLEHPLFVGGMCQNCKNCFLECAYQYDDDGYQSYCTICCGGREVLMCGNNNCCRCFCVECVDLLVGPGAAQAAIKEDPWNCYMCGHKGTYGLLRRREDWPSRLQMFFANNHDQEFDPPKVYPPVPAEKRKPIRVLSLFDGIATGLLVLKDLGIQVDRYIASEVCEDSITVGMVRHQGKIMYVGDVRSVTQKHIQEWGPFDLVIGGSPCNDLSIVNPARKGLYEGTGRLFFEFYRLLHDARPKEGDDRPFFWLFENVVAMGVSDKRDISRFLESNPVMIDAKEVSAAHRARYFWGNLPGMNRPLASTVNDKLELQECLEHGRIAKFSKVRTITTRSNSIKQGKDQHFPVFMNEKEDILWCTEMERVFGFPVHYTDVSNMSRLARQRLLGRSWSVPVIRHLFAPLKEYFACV

Method: Then, 2 μg of GST-ISGF3γ protein were incubated with the membrane.

B1: GST-ISGF3γ protein (other)
chain: MASGRARCTRKLRNWVVEQVESGQFPGVCWDDTAKTMFRIPWKHAGKQDFREDQDAAFFKAWAIFKGKYKEGDTGGPAVWKTRLRCALNKSSEFKEVPERGRMDVAEPYKVYQLLPPGIVSGQPGTQKVPSKRQHSSVSSERKEEEDAMQNCTLSPSVLQDSLNNEEEGASGGAVHSDIGSSSSSSSPEPQEVTDTTEAPFQGDQRSLEFLLPPEPDYSLLLTFIYNGRVVGEAQVQSLDCRLVAEPSGSESSMEQVLFPKPGPLEPTQRLLSQLERGILVASNPRGLFVQRLCPIPISWNAPQAPPGPGPHLLPSNECVELFRTAYFCRDLVRYFQGLGPPPKFQVTLNFWEESHGSSHTPQNLITVKMEQAFARYLLEQTPEQQAAILSLV
notes: Recombinant fusion used at 2 µg on the DNMT3A peptide membrane; not shown: GST (glutathione S-transferase) tag
For B1, the binding result is given as “binds”.
